Results as given in the DeepSol protein solubility set.

Experiment: soluble on expression in E. coli; label from the status in PepcDB or PDB records

Row | Sequence | soluble on expression in E. coli
1 | LQETGAEFKIEVSILKDKATVLIDTTGASLFKRGYRTDKGGAPIKENMAAAILELSNWYPDKPLIDPTCGSGTFCIEAAMIGMNIAPGFNRDFAFEAWNWVGKDLVQSVRDEADSKANYDVALDIMGCDIDSRMVEIAKANAREAGLEDVVKFKQMRLQDLKTDKINGVIISNPPYGERLLDDKAVDILYNEMGQTFAPLKTWSKFILTSDEQFESKYGMKADKKRKLYNGTLRVDLYQYFGERVRRSEARKVN | not soluble
2 | LRLHQWLRNHQPDEPPPDSYGLWGEVFDNIYHLQRRNQRARGRLQAVIDRIQESTAALRDAVIMLDSDGNLEWWNLAAENLLGLKTPQDGGQPVSNLIRHPRFKEYFDQEDYREPLEIPSPINERLRLQFHITLYGNREHLMLVRDVTRVHQLEQMRKDFVANVSHELRTPLTVIAGYLETLLDNVEDVNPRWLRALQQMQQQAGRMQNLLNDLLLLAKLEATDYPGDNKPVAVDALLASIRNDAQALSAGRNHRISLDAAPAVQLKGSEAELRSAFSNLVFNAVKYTPDEGEIRIRWWADEQGAHLSVQDTGIGVDPKHLPRLTERFYRVDSSRASNTGGTGLGLAIVKHVLIRHRARLEISSVPGKGSTFTCHFAPAQVAEAERKAPK | not soluble
3 | LSITDCRGAPLYEFRYPQQFYATFASVPPLLVHSLLFIENRDLLDPQQPLANPAVDWPRFVKAAWSQVAKMFALPGQSAGGSTLATQLEKYRHSPDGLTQSGSEKLRQMISASVRAYQPGAETLEVRQRVVRDYLNSVPLSAVPGHGEVHGLAEGLRVWFGVDFARTNQLLASGPTDQQGLADKALALREVLSLVIAQRRPSHYLAK | not soluble
4 | LSNLPRVKHTLVPPPFAHAHEQVAASGPVINEFEMRIIEKEVQLDEDAYLQAMTFDGSIPGPLMIVHEGDYVELTLINPPENTMPHNIDFHAATGALGGGGLTLINPGEKVVLRFKATRAGAFVYHCAPGGPMIPWHVVSGMAGCIMVLPRDGLKDHEGKPVRYDTVYYIGESDHYIPKDEDGTYMRFSDPSEGYEDMVAVMDTLIPSHIVFNGAVGALTGEGALKAKVGDNVLFVHSQPNRDSRPALIGGHGDLVWETGKFHNAPERDLETWFIRGGTAGAALYKFLQPGVYAYVNHNLIEAVHKGATAHVLVEGEWDNDLMEQVVAPVGLTG | soluble
5 | LSSVSSIPDYAEQLRTADLRVTRPRVAVLEAVNAHPHADTETIFGAVRFALPDVSRQAVYDVLHALTAAGLVRKIQPSGSVARYESRVGDNHHHIVCRSCGVIADVDCAVGEAPCLTASDHNGFLLDEAEVIYWGLCPDCSISDTSRSHP | soluble
6 | LTTHNFARKTFLKLAFCDICQKFLLNGFRCQTCGYKFHEHCSTKVPTMCVDW | soluble
7 | MAAAAAARKGGFWQRFAGKGVVQHCQSPTAPLPEACADMLWSNLGLLAAESIVPVLQNWARALKTDGLLFFTCFGRDTLAELKCRLKENGIESRSVMFPDMHDLGDMLAENGFYDPVTDTAKLVLDYKKAETFWADMDTLGIWRAMAWNDENAARSCVGTIFEREGGLGITLETVYGHAVKKLMLPQGENVVQFFPKRLEHHHHHH | soluble
8 | MAAHGGSAASSALKGLIQQFTTITGASESVGKHMLEACNNNLEMAVTMFLDGGGIAEEPSTSSASVSTVRPHTEEEVRAPIPQKQEILVEPEPLFGAPKRRRPARSIFDGFRDFQTETIRQEQELRNGGAIDKKLTTLADLFRPPIDLMHKGSFETAKECGQMQNKWLMINIQNVQDFACQCLNRDVWSNEAVKNIIREHFIFWQVYHDSEEGQRYIQFYKLGDFPYVSILDPRTGQKLVEWHQLDVSSFLDQVTGFLGEHGQLDGLSSSPPKKCARSESLIDASEDSQLEAAIRASLQETHFDSTQTK | not soluble
9 | MAAKQGESDPERKETRQKVDDDRKHEIEAAIVRIMKSRKKMQHNVLVAEVTQQLKARFLPSPVVIKKRIEGLIEREYLARTPEDRKVYTYVA | soluble
10 | MAALTKVKLCQLDDLMPFIGATVLIEGERVALFYIPDSGVYAVQDWDPIGKAYVMSRGIVGDINGEMCVASPLYKQHFSLKSGQCLEDEAHCLKTWRVTVDDNQVCYLAKELEHHHHHH | soluble
11 | MAAPSMKERQACWGARDLYWRCLDDNAEDAARCQKLRSSFEASCPQQWIKYFDKRRDYLKFKEKFEAGGFQSSQSTENS | soluble
12 | MAARLAASRIVHAGRGISQPTPFGKRMDRLSNRVWGEVVMPTDTKSLKVVRVMSAEPYETKEQLSPKYYPNLPMFHYLTKMLRFHGLFFDDHVVFRDVQDNLKIIRGKVVRPPIGQGKRAQLRGKK | not soluble
13 | MAAVPELLEQQEEDRSKLRSVSVDLNVDPSLQIDIPDALSERDKVKFTVHTKTTLSTFQSPEFSVTRQHEDFVWLHDTLTETTDYAGLIIPPAPTKPDFDGPREKMQKLGEGEGSMTKEEFAKMKQELEAEYLAVFKKTVSTHEVFLQRLSSHPVLSKDRNFHVFLEYDQDLSVRRKNTKEMFGGFFKSVVKSADEVLFSGVKEVDDFFEQEKNFLINYYNRIKDSCAKADKMTRSHKNVADDYIHTAACLHSLALEEPTVIKKYLLKVAELFEKLRKVEGRVSSDEDLKLTELLRYYMLNIEAAKDLLYRRTKALIDYENSNKALDKARLKSKDVKLAETHQQECCQKFEQLSESAKEELINFKRKRVAAFRKNLIEMSELEIKHARNNVSLLQSCIDLFKNN | soluble
14 | MAAWTPDLEAELSQLLKDWLKQQGRTQADLRRSLKAVSTRMPALLEVLEREHRLNGLSGLLARLCRVETEWHGGADHTSEAAEQSDPFGQLDLLLQEIRQDCPS | not soluble
15 | MACTAADVVEEDLMSDRIANAQLRGKVMSAEEAAQFVNHGDKVGVSGFTGAGYPKALPTAIAERAKEAHARGDEYMIDLFTGASTAPDCDGVLAEADALRFRTPYQSDPILRSKINDGTTLYADYHLSESGIYVEQGFFGQMNVAIVEAVRITEEGHIVPSSSVGNNVEYLDNAEKIIIEVNSWQSEELEGMADIYRMNKLPNRQPIPITEAGQRIGTTYIDIDLSKVVAVVETDAPDRNAPFKPLDETSKQIAGHFLDFLEGEVAAGRLTYDGYVMQSGVGNVPNAVMAGLLDSKFENIKAYTEVIQDGMVDLIDAGKMTVASATSFSLSPEYAERMNAEAKNYAQKIILRPQQISNHPEVVRRLGLICTNGLIEADIYGNVNSTNVTGSRMMNGVGGSADFTRNGFISSFITPSVAKGGDISAFVPFVSHVDHTEQDVKVLISEYGYADLRGLAPRQRVEKIIAIAHPDYRPLLQDYYDRALAFAKEKKIMQTPHLLGEALSFHQRFQETGSMKK | not soluble
16 | MADAEGDPLQAFWTQVVRLRDLLKFDFYFADSAAFHQNVAEEMSWHADWEQQVRAGRDGIETLMRAKRPLLADAMLRPYFEAYTIVADVLRDAPAEIAEKDLTKLALGVGQQYVAQGRVRNNESVSALLFATARQVAADQGLLEHGPDLMEQRRAFRDELRGILRDLDTVDRYARELFAARERERRTKRDEAVLEHHHHHH | not soluble
17 | MADETDITHTKWLAYSKSLKIDLTYPGINGIGIIYNIQADQLDDYIEKQRVLRPNYAIHPSHNESEYWPITYVEPAAPNKKAIGLDMAFETNRYSSIKKARDTGVAQLTGPITLVQDAKKTPGFLFYTPFYKNGTKPESTEARRDAIDGVTYAPFIMKNLMQGTLAEKNRHVSIQIRDAGDLLFDDHDDESVLDADANPLFTKEQDISLYGRTWSFTIQSNLDFRDESAANQLEHHHHHH | soluble
18 | MADFDTNPTSLYSIKGIVILDQDGNRVLAKYYDRTTFGTVKEQKAFEKSLFSKTSRNTSADILLLDGVTCLYRSNVDLYFYVLGSTRENELFLDATLTCLYDAVSVVLRKNVEKKALIDSMDTIMLIIDEICDEGIIMETDAQAVVQRTALKSDEVSFSDQSVSQIGFSFMKSANEQFKWSLLK | not soluble
19 | MADILLLDNIDSFTYNLVDQLRSSGHRVVIYRNHIAADNIIERLQQLEQPVLMLSPGPGTPAQAGCMPELLQRLQGQLPMIGICLGHQAIIEAYGGHVGQAGEILHGKASAIEHDGQGMFAGMPNPLPVARYHSLVGSNLPAELTVNARFGEMVMAVRHDAHRVCGYQFHPESILTTHGARLLEQTLAWALA | not soluble
20 | MADLPISLLQTLAYKQPLGRNSRIVHFTDGALFPVVAFGDNHSTSELYIAVRGDHRDLMSPDVRDSYALTGDDHKVWGATHHTYYVEGAPKKPLKFNVKTRTDLTILPVADVFWRADGSADVDVVWNDMPAVAGQSSSIALALASSLPFVPKAAYTGCLSGTNVQPVQFGNLKARAAHKIGLPLVGMTQDGGEDTRICTLDDAADHAFDSMESTVTR | soluble
21 | MADNYVIWFENLRMTDVERVGGKNASLGEMISQLTEKGVRVPGGFATTAEAYRAFLAHNGLSERISAALAKLDVEDVAELARVGKEIRQWILDTPFPEQLDAEIEAAWNKMVADAGGADISVAVRSSATAEDLPDASFAGQQETFLNINGLDNVKEAMHHVFASLYNDRAISYRVHKGFEHDIVALSAGVQRMVRSDSGASGVMFTLDTESGYDQVVFVTSSYGLGENVVQGAVNPDEFYVFKPTLKAGKPAILRKTMGSKHIKMIFTDKAEAGKSVTNVDVPEEDRNRFSITDEEITELAHYALTIEKHYGRPMDIEWGRDGLDGKLYILQARPETVKSQEEGNRNLRRFAINGDKTVLCEGRAIGQKVGQGKVRLIKDASEMDSVEAGDVLVTDMTDPDWEPVMKRASAIVTNRGGRTCHAAIIARELGIPAVVGCGNATELLKNGQEVTVSCAEGDTGFIYAGLLDVQITDVALDNMPKAPVKVMMNVGNPELAFSFANLPSEGIGLARMEFIINRQIGIHPKALLEFDKQDDELKAEITRRIAGYASPVDFYVDKIAEGVATLAASVYPRKTIVRMSDFKSNEYANLVGGNVYEPHEENPMLGFRGAARYVADNFKDCFALECKALKRVRDEMGLTNVEIMIPFVRTLGEAEAVVKALKENGLERGKNGLRLIMMCELPSNAVLAEQFLQYFDGFSIGSNDMTQLTLGLDRDSGLVSESFDERNPAVKVMLHLAISACRKQNKYVGICGQGPSDHPDFAKWLVEEGIESVSLNPDTVIETWLYLANELNK | soluble
